Measured values published in patent US20050123563A1 (INTEGRAL MOLECULAR, published 2005).

Columns and labels:
[1] = molecular target: T1, Protein A (ProA) beads bearing no antibody (Staphylococcal, UniProt P38507 37-477); assay: fluorescence microscopy of Protein A beads without antibody, probed with fluorescent lipoparticles containing CXCR4
T1 construct: also called no antibody control

[2] = molecular target: T2, SDF-1 (unlabeled chemokine, 8 kDa) (UniProt P48061-2 22-89); assay: radioligand competition on CXCR4 lipoparticles: increasing cold SDF-1 against 0.1 nM radiolabeled SDF-1α, 1 h at room temperature, filtration through GF/C filters, gamma counting [box at the upper right]
T2 construct: also called 8 kDa natural ligand (SDF-1); cold ligand (Peprotech)

[3] = molecular target: T3, Radiolabeled SDF-1α (Perkin-Elmer) (UniProt P48061-2 22-89); assay: radioligand binding: fixed radiolabeled SDF-1α with CXCR3 lipoparticles, filtration, gamma counting
T3 construct: also called radioligand

Binder | binding result [1] | Kd [2] | binding result [3]
CXCR4 (chemokine receptor, GPCR) incorporated into lipoparticles (receptor, UniProt P61073 1-352, looked up, whole, on cells; also called CXCR4-lipoparticles; CXCR4-containing lipoparticles) MEGISIYTSDNYTEEMGSGDYDSMKEPCFREENANFNKIFLPTIYSIIFLTGIVGNGLVILVMGYQKKLRSMTDKYRLHLSVADLLFVITLPFWAVDAVANWYFGNFLCKAVHVIYTVNLYSSVLILAFISLDRYLAIVHATNSQRPRKLLAEKVVYVGVWIPALLLTIPDFIFANVSEADDRYICDRFYPNDLWVVVFQFQHIMVGLILPGIVILSCYCIIISKLSHSKGHQKRKALKTTVILILAFFACWLPYYIGISIDSFILLEIIKQGCEFENTVHKWISITEALAFFHCCLNPILYAFLGAKFKTSAQHALTSVSRGSSLKILSKGKRGGHSSVSTESESSSFHSS | no binding | 8.53 nM | 
CXCR3 incorporated into lipoparticles (receptor, UniProt P49682 1-368, looked up, whole, on cells) MVLEVSDHQVLNDAEVAALLENFSSSYDYGENESDSCCTSPPCPQDFSLNFDRAFLPALYSLLFLLGLLGNGAVAAVLLSRRTALSSTDTFLLHLAVADTLLVLTLPLWAVDAAVQWVFGSGLCKVAGALFNINFYAGALLLACISFDRYLNIVHATQLYRRGPPARVTLTCLAVWGLCLLFALPDFIFLSAHHDERLNATHCQYNFPQVGRTALRVLQLVAGFLLPLLVMAYCYAHILAVLLVSRGQRRLRAMRLVVVVVVAFALCWTPYHLVVLVDILMDLGALARNCGRESRVDVAKSVTSGLGYMHCCLNPLLYAFVGVKFRERMWMLLLRLGCPNQRGLQRQPSSSRRDSSWSETSEASYSGL |  |  | no binding (tested: about 1.25 ug lipoparticles)
